We go through three molecules from patent publication US20170355777A1 (UNIVERSITY OF LEICESTER, published 2017).

T1: recombinant MLP (rMLP) C-terminal fusion protein: N-terminal histidine tag fused to residues 279-431 of human … (human)
T1 construct: Expressed in E. coli from pRSETB and purified on a nickel column; ran at 28 kDa; also called rMLP C-terminal protein; recombinant MLP C-terminal protein
T1 chain: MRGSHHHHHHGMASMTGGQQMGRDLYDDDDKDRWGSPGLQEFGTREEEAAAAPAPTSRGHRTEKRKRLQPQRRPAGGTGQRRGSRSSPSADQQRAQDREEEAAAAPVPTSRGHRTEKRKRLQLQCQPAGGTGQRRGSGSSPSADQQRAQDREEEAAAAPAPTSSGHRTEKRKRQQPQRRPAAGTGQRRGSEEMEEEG

B1: anti-MLP monoclonal antibody αMLP Clone C (hybridoma ATCC PTA-121701) (antibody, IgG1, V domains shown)
VH: DVKLQESGGGLVQPGGSMKLSCVASGFTFSNYWMNWVRQSPEKGLEWVAEIRLKSNNYAINYAESVKGRFTISRDDSKSSVYLDMNNLRAEDTGIYYCTSYYGSSLYYLDYWGQGTTLTVSS
VL: QIVLTQSPVIMSASPGEKVTISCSASSSVSNMYWYQQKPGSSPKAWIYRTSNLASGVPARFSGSGSGTSYSLTISSMEAEDAATYYCHQYQSYPRTFGAGTKLEIK
notes: also called 2(C); mAb clone C
B2: anti-MLP monoclonal antibody αMLP Clone B (hybridoma ATCC PTA-121700) (antibody, IgG2a, V domains shown)
VH: EVQLQQSGPELVKPGASVKISCKASGYSFTGFYIHWVKQSHVKSLEWIGRIHPYNGAPTYNQNFKDRARLTVHESSSTAYMEFFGLTSEDSAVYYCARERVYYYGSTYEFDFWGQGTTLTVSS
VL: DVLMTQTPLSLPVSLGDQASISCRSGQSIVHSSGVTYLSWYLQKPGQSPKLLIYKVFYRFSGVPDRFSGSGSGTDFTLKISRVEAEDLGVYYCFQGSHVPPTFGTGTKLELK
notes: also called mAb clone B
B3: anti-MLP monoclonal antibody αMLP Clone 11 (hybridoma ATCC PTA-121699) (antibody, IgG2b, V domains shown)
VH: B2 VH with S28A, V37M, P58T, T59S, R69S, H73D, F84Y, F112S
VL: B2 VL with S32T, A85S, T105A
notes: also called mAb clone 11

Substitutions are numbered along the chain they refer to.

The assay deals with T1, recombinant MLP (rMLP) C-terminal …. As to the kind of experiment: KD (binding to rMLP); method not described at the table.
On to B1, for which the Kd was < 1 nM.
With B2, the Kd was < 1 nM.
The same measure for B3: 0.2 nM.

By Kd is commonly meant the free concentration of one partner at which half of the binding sites on the other are occupied at equilibrium, for simple one-to-one binding.
